This test deals with protein A (UniProt P38507). The test is described as follows: SPR. In general terms: SPR reads the build-up and loss of mass on a sensor chip optically.

This passage reports SPR angle increase results from paper PMC3045209.

On to rabbit IgG (antibody), for which the SPR angle increase turned out to be 2.1 °.
